Reference: US20090203610A1, “METHODS OF TREATING OBESITY OR DIABETES USING NT-4/5” (RINAT NEUROSCIENCE CORPORATION, priority 2004, published 2009)

Assays:
Format in all cases: in vivo
[1] = tested on: db/db mice; experiment: Dose response of NT-4/5 on food intake of db/db mice (Example 2)
Method: Db/db mice maintained as described in Example 1 were divided into five groups (groups 1-5). Group 1 (7 mice) were administered with vehicle (PBS). Group 2 (7 mice), group 3 (8 mice), group 4 (8 mice), group 5 (8 mice) were each administered with NT-4/5 at the doses of 2 mg/kg, 5 mg/kg, 10 mg/kg, and 20 mg/kg, respectively. Both the vehicle and NT-4/5 were administered to each group of the mice subcutaneously once daily for five days. One day before beginning the treatment (T0), blood samples were collected from the mice as described previously for the determination of baseline levels of serum biomarkers (glucose, triglyceride, and cholesterol). Similarly, at day 6 (T6), blood samples were collected for the determination of serum biomarker levels. The blood samples were treated in the same manner as described in Example 1.
[…] Individual body weights were also measured daily from 6 days before the treatment (T-5) to day 7 (T7).

[2] = tested on: db/db mice; experiment: Body weight and food intake, daily s.c. dosing day 1 to 30 in db/db mice (Example 2)
Method: Female db/db mice (12 weeks old) were divided into three groups and were subcutaneously injected with vehicle (PBS) or NT-4/5 at doses of 5 mg/kg, or 20 mg/kg daily from day 1 to day 30. […] Food intake was reduced to about 20% of the vehicle group level after 10 days of administration of NT-4/5 at 20 mg/kg and was maintained at that level until day 30. Food intake was returned to about the same level as the vehicle group about 12 days after stop of treatment.

[3] = tested on: NONcNZO-10 polygenic obese mice; experiment: Body weight in NONcNZO-10 mice (Example 4, Table 19)
From the text: (§1) Test animals: 40 male NONcNZO-10 polygenic obese mice obtained from Jackson Laboratory at 10 weeks of age weighing in the range of 26-32 g were used in this study.
(§2) Administration of NT-4/5: NT-4/5 was produced in E. coli as descried in U.S. Pat. No. 6,184,360. The mice were divided into 6 groups of equivalent body weight and baseline blood glucose distribution (6-7 mice per group). […] A “paired-fed” control group received daily injection of vehicle, but were only fed with the same amount of food the 3 mg/kg group consumed the previous day. On the day when the treatment started (day 1), a baseline blood samples were collected for measuring glucose and triglyceride. Triglyceride level was measured on day 10. At the end of the study (day 12), a terminal blood sample was collected to determine glucose, triglyceride, electrolytes (Na, K, Cl), testoterone, corticosterone, thyroid hormone (total T4) and thyroid stimulating hormone (TSH) levels. Electrolytes, free testosterone, T4 and TSH levels of serum samples were measured by AniLytics (Gaithesburg, M.D) according to the standard protocols employed by the vendor. Other analytes were measured as described above. Body weight, food intake were monitored 5 days per week through out the entire study. Daily water intake was measured from day 5 through day 7.

[4] = tested on: NONcNZO-10 polygenic obese mice; experiment: Water intake, electrolyte balance and endocrine functions in NONcNZO-10 mice (Example 4)
From the text: as §1, §2
The effects of NT-4/5 treatment on water intake, electrolyte balance and endocrine functions were also tested. Water intake was measured from day 5 through 7. The electrolyte (i.e., Na, K, and Cl) concentrations were measured using the terminal blood samples taken on day 12. […] One way ANOVA followed by Dunnett's post-test were used for statistical analysis.

[5] = tested on: DIO mice; experiment: Respiratory quotient and energy expenditure by indirect calorimetry (CCMS) in DIO mice (Example 9)
From the text: Test animals: Mice with diet induced obesity (DIO) were used in this study. 29 male C57BL/6J mice were weaned at 4 weeks of age. Immediately after weaning they were put on 58% high fat diet (D12331i, Research Diet) through out the study. The DIO mice at 13 weeks of age weighing in the range of 28-40 g were used in this study.
Administration of NT-4/5: NT-4/5 was obtained from Genentech Inc. or produced as described in U.S. Pat. No. 6,184,360. The mice were divided into 2 groups of equivalent body weight distribution (8 mice per group). The mice were acclimated individually in the Comprehensive Cage Monitoring System (CCMS, Columbus Instruments) for 2 days, in preparation for the indirect calorimetry, before the treatment started. Each group received 5 daily subcutaneous doses of either vehicle or 10 mg/kg of NT-4/5, respectively. Body weight and food intake were monitored 5 days per week through out the entire study. […] The body composition, i.e. percent lean body mass, fat content, and bone density was determined the day both before treatment started (day 0) and the final day of treatment (day 5) with a PIXImus Mouse Densitometer (GE Lunar Medical Systems, Madison, Wis.) using software version 1.46. […]

[6] = tested on: Sprague-Dawley rats; experiment: Heat/thermal hyperalgesia, latency for foot withdrawal (Example 13)
Method: To test whether NT-4/5 elicits pain in animals after NT-4/5 administration, a heat/thermal hyperalgesia animal model was used for testing. […] Then the latency for foot withdrawal in response to a constant radiant heat source was measured. See, Hargreaves et al., Neurology 48:501-505 (1997); Shu et al., Pain 80:463-470 (1999).

B1: NT-4/5: mature human neurotrophin-4/5 (SEQ ID NO:1), obtained from Genentech or produced in E. coli (protein, listed as Homo sapiens)
chain: GVSETAPASRRGELAVCDAVSGWVTDRRTAVDLRGREVEVLGEVPAAGGSPLRQYFFETRCKADNAEEGGPGAGGGGCRGVDRRHWVSECKAKQSYVRALTADAQGRVGWRWIRIDTACVCTLLSRTGRA
[1]; 2, 5, 10 and 20 mg/kg
  food intake as compared to vehicle: significantly decreased food intake
[1]; Day 0, 2 mg/kg s.c. daily
  food intake: 7.79 g
[1]; Day 0, 5 mg/kg s.c. daily
  food intake: 7.26 g
[1]; Day 0, 10 mg/kg s.c. daily
  food intake: 7.48 g
[1]; Day 0, 20 mg/kg s.c. daily
  food intake: 7.46 g
[1]; Day 1, 2 mg/kg s.c. daily
  food intake: 5.20 g
[1]; Day 1, 5 mg/kg s.c. daily
  food intake: 4.55 g
[1]; Day 1, 10 mg/kg s.c. daily
  food intake: 4.13 g
[1]; Day 1, 20 mg/kg s.c. daily
  food intake: 4.11 g
[1]; Day 2, 2 mg/kg s.c. daily
  food intake: 5.87 g
[1]; Day 2, 5 mg/kg s.c. daily
  food intake: 4.86 g
[1]; Day 2, 10 mg/kg s.c. daily
  food intake: 5.18 g
[1]; Day 2, 20 mg/kg s.c. daily
  food intake: 4.66 g
[1]; Day 3, 2 mg/kg s.c. daily
  food intake: 3.89 g
[1]; Day 3, 5 mg/kg s.c. daily
  food intake: 3.99 g
[1]; Day 3, 10 mg/kg s.c. daily
  food intake: 3.85 g
[1]; Day 3, 20 mg/kg s.c. daily
  food intake: 3.39 g
[1]; Day 4, 2 mg/kg s.c. daily
  food intake: 4.79 g
[1]; Day 4, 5 mg/kg s.c. daily
  food intake: 3.69 g
[1]; Day 4, 10 mg/kg s.c. daily
  food intake: 4.00 g
[1]; Day 4, 20 mg/kg s.c. daily
  food intake: 3.40 g
[1]; Day 5, 2 mg/kg s.c. daily
  food intake: 4.19 g
[1]; Day 5, 5 mg/kg s.c. daily
  food intake: 3.79 g
[1]; Day 5, 10 mg/kg s.c. daily
  food intake: 3.60 g
[1]; Day 5, 20 mg/kg s.c. daily
  food intake: 3.06 g
[1]; Day 6, 2 mg/kg s.c. daily
  food intake: 3.99 g
[1]; Day 6, 5 mg/kg s.c. daily
  food intake: 3.00 g
[1]; Day 6, 10 mg/kg s.c. daily
  food intake: 2.56 g
[1]; Day 6, 20 mg/kg s.c. daily
  food intake: 1.71 g
[1]; Day 7, 2 mg/kg s.c. daily
  food intake: 4.13 g
[1]; Day 7, 5 mg/kg s.c. daily
  food intake: 3.48 g
[1]; Day 7, 10 mg/kg s.c. daily
  food intake: 3.21 g
[1]; Day 7, 20 mg/kg s.c. daily
  food intake: 2.03 g
[2]; 20 mg/kg, after 10 days of administration, maintained until day 30
  food intake, % of the vehicle group level: about 20%
[2]; 5 or 20 mg/kg s.c. daily day 1 to 30
  body weight: reduced body weight in a dose dependent manner
[2]; mouse, in vivo
  time after stop of treatment until food intake returned to vehicle group level: about 12 days
[3]; 1 mg/kg
  body weight loss relative to the vehicle control: about 5%
[3]; 3 mg/kg
  body weight loss relative to the vehicle control: about 10%
[3]; dose dependent manner
  body weight: reduced body weight
[4]; 0.1-3 mg/kg/day, day 12
  serum corticosterone levels: did not significantly change
  testoterone levels: did not significantly change
[4]; compared to the vehicle control
  thyroid stimulating hormone (TSH) level: no change
[4]; daily 3 mg/kg, still within normal range
  Total thyroxine T4 reduction: about 33%
[4]; day 5 through 7, 0.1, 0.3, 1 and 3 mg/kg
  treatment groups showing a statistically significant difference from vehicle in water intake: None
[5]; 10 mg/kg s.c. daily, P=0.0025
  respiratory quotient (RQ=Vco2/Vo2): reduced the respiratory quotient
[5]; day 1 to day 5, 10 mg/kg, vs vehicle
  estimated cumulative energy expenditure: No change
[6]; 2 mg/kg
  pain: did not cause pain
[6]; 2 mg/kg s.c., 3, 5 and 24 hour after administration
  changes of latency for foot withdrawal in response to radiant heat: No statistically significant changes
